These results are taken from patent US20090082299A1 (US Dept. of Health and Human Services, published 2009).

The target in this assay is human IL-15 expressed from plasmid hIL15tPA6 (human IL-15opt1-tPA6; improved IL-15 with tPA6 SIGPRO peptide) (human, UniProt P40933 49-162). Kind of assay: cell-based or functional assay.
human IL-15 expressed from plasmid hIL15tPA6 (human IL-15opt1-tPA6; improved IL-15 with tPA6 SIGPRO peptide), sequence (P40933 other isoform, or with tags, fused parts or gaps limits assumed): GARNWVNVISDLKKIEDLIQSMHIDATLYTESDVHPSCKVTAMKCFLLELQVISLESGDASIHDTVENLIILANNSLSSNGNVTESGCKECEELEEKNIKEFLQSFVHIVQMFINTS

B1: human IL-15 Receptor alpha, whole / full length (plasmid AG79, huIL15RaOPT) (receptor)
chain: ITCPPPMSVEHADIWVKSYSLYSRERYICNSGFKRKAGTSSLTECVLNKATNVAHWTTPSLKCIRDPALVHQRPAPPSTVTTAGVTPQPESLSPSGKEPAASSPSSNNTAATTAAIVPGSQLMPSKSPSTGTTEISSHESSHGTPSQTTAKNWELTASASHQPPGVYPQGHSDTTVAISTSTVLLCGLSAVSLLACYLKSRQTPPLASVEMEAMEALPVTWGTSSRDEDLENCSHHL
In the case of B1, the “total increase in IL-15 steady-state levels on co-expression in 293 cells, ELISA (FIG. 45A)” value was determined as 4 fold.

B2: human soluble IL-15 Receptor alpha (extracellular part; plasmid AG98, hu sIL15RaOPT) (receptor)
chain: ITCPPPMSVEHADIWVKSYSLYSRERYICNSGFKRKAGTSSLTECVLNKATNVAHWTTPSLKCIRDPALVHQRPAPPSTVTTAGVTPQPESLSPSGKEPAASSPSSNNTAATTAAIVPGSQLMPSKSPSTGTTEISSHESSHGTPSQTTAKNWELTASASHQPPGVYPQGHSDTT
As to B2, the “total increase in IL-15 steady-state levels on co-expression in 293 cells, ELISA (FIG. 45A)” value is 7 fold.
